This is an account of results in US12503511 (COMPASS THERAPEUTICS, dated 2025).

Assay [1] deals with T1, cyno PD-1 expressed on cells (cynomolgus).
T1 construct: whole, on cells; also called cyPD-1; cynomolgus PD-1
Kind of assay: cell binding titration, CHO cells expressing cyno PD-1.

In assay [2] the target is T2, human PD-1 expressed on cells (human, UniProt Q15116 25-288).
T2 construct: also called huPD-1; CHO cells expressing human PD-1
The experiment in a line: cell binding titration, CHO cells expressing human PD-1.

In assay [3] the target is T3, murine PD-1 expressed on cells (murine, UniProt Q02242 25-288).
T3 construct: whole, on cells; also called muPD-1; mouse PD-1
T3 sequence (looked up): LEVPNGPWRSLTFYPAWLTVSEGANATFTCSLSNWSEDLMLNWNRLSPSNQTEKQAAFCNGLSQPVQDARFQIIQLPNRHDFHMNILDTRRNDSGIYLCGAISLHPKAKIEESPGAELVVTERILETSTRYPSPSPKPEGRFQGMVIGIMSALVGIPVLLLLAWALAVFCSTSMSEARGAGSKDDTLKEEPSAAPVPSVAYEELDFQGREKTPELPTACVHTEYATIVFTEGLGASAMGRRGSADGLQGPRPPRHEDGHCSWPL
Kind of assay: cell binding titration, CHO cells expressing murine PD-1.

Assay [4] has as its target T4, purified recombinant His tagged human PD-1 (human, UniProt Q15116 25-170).
T4 construct: not shown: His tag
The experiment in a line: SPR (Carterra MX96), antibody on chip, His-tagged human PD-1 injected.

The target in assay [5] is T4, purified recombinant His tagged human …. Kind of assay: SPR KD; fold improvement over parent mAb25.
The target in assay [6] is T1, cyno PD-1 expressed on cells. Kind of assay: cell binding EC50 on CHO-cyno PD-1; fold improvement over parent mAb25.
Assay [7] concerns the target T2, human PD-1 expressed on cells. The experiment in a line: cell binding EC50 on CHO-human PD-1; fold improvement over parent mAb25.
In assay [8] the target is T5, murine PD-L1 expressed on cells (murine, UniProt Q9EP73 19-290).
T5 construct: whole, on cells; also called muPDL1; mouse PD-L1
Kind of assay: cell binding titration, A20 cells expressing murine PD-L1.

The target of assay [9] is T6, human PD-L1 expressed on cells (human, UniProt Q9NZQ7 19-290).
T6 construct: also called huPDL1; human PD-L1 on HEK cells
Kind of assay: cell binding EC50 on HEK-human PD-L1; fold improvement, reference taken as parent mAb24.

Assay [10] deals with T7, purified recombinant His tagged human PD-L1 (human, UniProt Q9NZQ7 19-238).
T7 construct: not shown: His tag
The experiment in a line: SPR KD; fold improvement, reference taken as parent mAb24.

The target in assay [11] is T6, human PD-L1 expressed on cells. The experiment in a line: cell binding titration, HEK cells expressing human PD-L1.
Assay [12] has as its target T7, purified recombinant His tagged human …. The experiment in a line: SPR (Carterra MX96), antibody on chip, His-tagged human PD-L1 injected.

T6 sequence (Q9NZQ7 19-290 limits assumed): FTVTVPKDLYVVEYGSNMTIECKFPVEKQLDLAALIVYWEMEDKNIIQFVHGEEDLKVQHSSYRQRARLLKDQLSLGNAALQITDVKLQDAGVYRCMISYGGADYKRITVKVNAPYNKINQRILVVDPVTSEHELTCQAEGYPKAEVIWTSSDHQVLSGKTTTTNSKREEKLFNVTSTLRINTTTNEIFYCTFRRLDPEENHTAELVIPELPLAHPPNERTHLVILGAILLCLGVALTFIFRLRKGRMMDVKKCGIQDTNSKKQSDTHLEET
T4 sequence (Q15116 25-170 limits assumed): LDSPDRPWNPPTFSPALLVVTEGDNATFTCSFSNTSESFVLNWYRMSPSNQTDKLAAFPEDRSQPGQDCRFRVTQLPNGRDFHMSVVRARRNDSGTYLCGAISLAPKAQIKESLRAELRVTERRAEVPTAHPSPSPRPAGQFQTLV
T7 sequence (Q9NZQ7 19-238 limits assumed): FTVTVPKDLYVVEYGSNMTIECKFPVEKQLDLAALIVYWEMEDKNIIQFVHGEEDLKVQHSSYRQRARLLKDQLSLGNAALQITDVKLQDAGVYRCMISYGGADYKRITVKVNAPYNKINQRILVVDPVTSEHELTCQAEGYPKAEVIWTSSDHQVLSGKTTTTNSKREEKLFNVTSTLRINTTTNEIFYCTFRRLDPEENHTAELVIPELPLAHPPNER
T2 sequence (Q15116 25-288 limits assumed): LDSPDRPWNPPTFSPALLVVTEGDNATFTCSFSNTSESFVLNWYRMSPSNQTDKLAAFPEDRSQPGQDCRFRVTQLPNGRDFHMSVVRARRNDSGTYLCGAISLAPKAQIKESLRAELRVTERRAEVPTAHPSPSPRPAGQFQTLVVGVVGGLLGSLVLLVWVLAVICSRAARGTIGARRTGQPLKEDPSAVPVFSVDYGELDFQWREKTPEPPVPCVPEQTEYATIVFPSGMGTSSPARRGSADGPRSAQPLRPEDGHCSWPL
T5 sequence (Q9EP73 19-290): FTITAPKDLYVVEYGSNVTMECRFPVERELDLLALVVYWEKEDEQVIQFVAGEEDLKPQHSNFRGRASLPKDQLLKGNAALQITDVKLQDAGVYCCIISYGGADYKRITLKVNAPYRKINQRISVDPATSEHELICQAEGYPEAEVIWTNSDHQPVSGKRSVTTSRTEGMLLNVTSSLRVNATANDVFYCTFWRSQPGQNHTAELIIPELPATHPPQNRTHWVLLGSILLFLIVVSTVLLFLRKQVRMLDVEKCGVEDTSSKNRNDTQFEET

B1: mAb25 (antibody, V domains shown)
VH: EVQLLESGGGLVQPGGSLRLSCAASGFTFSDYAMSWVRQAPGKGLEWVSAISNSGTYTYYADSVKGRFTISRDNSKNTLYLQMNSLRAEDTAVYYCARGLDFIVGATGNDYWGQGTLVTVSS
VL: not shown
notes: also called parent PD-1 antibody mAb25
As a reminder, the EC50 is the concentration that produces a half-maximal response. Higher therefore signals a less potent agent. Broadly, the Kd is the concentration at which binding is half-saturated. On to B1, for which the EC50 was 8.59 nM in [1] and 0.915 nM in [2]. For the same molecule, in assay [3], the binding result is “no binding”. Further, in [4], the Kd was found to be 240 nM.

B2: mAb35 (antibody, V domains shown)
VH: EVQLLESGGGLVQPGGSLRLSCAASGFTFSGYAMSWVRQAPGKGLEWVSAISNSGTYTYYADSVKGRFTISRDNSKNTLYLQMNSLRAEDTAVYYCARGLDFIVGRTGNDYWGQGTLVTVSS
VL: not shown
Take B2: the “Fold improvement over Parent” value in assay [5] is 27 fold; in assay [6] it was 3.2 fold; in assay [7], 0.6 fold. Besides, the concentration giving a half-maximal response (EC50) in assay [1] amounted to 2.66 nM; in assay [2], 1.64 nM. Also, the Kd in assay [4] is 9 nM.

B3: mAb27 (antibody, V domains shown)
VH: EVQLLESGGGLVQPGGSLRLSCAASGFTFSSYAMSWVRQAPGKGLEWVSAISNSGTYTYYADSVKGRFTISRDNSKNTLYLQMNSLRAEDTAVYYCARGLDFIVGYTGNDYWGQGTLVTVSS
VL: not shown
On to B3, for which the “Fold improvement over Parent” value in [5] stood at 104 fold; in [6] it was 5.6 fold; in assay [7] it was 0.5 fold. In addition, the half-maximal effective concentration (EC50) in assay [1] amounted to 1.53 nM; in assay [2] it was 1.75 nM; in [3], 6.14 nM. Also, the Kd in [4] came out at 2.3 nM.

B4: mAb30 (antibody, V domains shown)
VH: EVQLLESGGGLVQPGGSLRLSCAASGFTFSAYAMNWVRQAPGKGLEWVSAISNSGTYTYYADSVKGRFTISRDNSKNTLYLQMNSLRAEDTAVYYCARGLDFIVGYTGNDYWGQGTLVTVSS
VL: not shown
As for B4, the “Fold improvement over Parent” value in [5] is 77 fold; in [6] it was 4.2 fold; in [7] it was 0.3 fold. Moreover, the values for the half-maximal effective concentration (EC50) in assay [1], in assay [2] and in assay [3] were 2.05 nM, 2.77 nM and 4.05 nM, respectively. The dissociation constant Kd in [4] came out at 3.1 nM.

B5: mAb29 (antibody, V domains shown)
VH: EVQLLESGGGLVQPGGSLRLSCAASGFTFSNYALSWVRQAPGKGLEWVSAISNSGTYTYYADSVKGRFTISRDNSKNTLYLQMNSLRAEDTAVYYCARGLDFIVGYTGNDYWGQGTLVTVSS
VL: not shown
As to B5, the “Fold improvement over Parent” value in [5] worked out at 28 fold; in assay [6], 5 fold; in assay [7], 0.7 fold. Further, the EC50 came to 1.73 nM in assay [1], 1.27 nM in assay [2] and 2.14 nM in [3]. Moreover, the Kd in assay [4] was 8.6 nM.

B6: mAb36 (antibody, V domains shown)
VH: EVQLLESGGGLVQPGGSLRLSCAASGFTFSSYAMNWVRQAPGKGLEWVSAISNSGTYTYYADSVKGRFTISRDNSKNTLYLQMNSLRAEDTAVYYCARGLDFIVGRTGNDYWGQGTLVTVSS
VL: not shown
As to B6, the “Fold improvement over Parent” value was determined as 31 fold in [5], 7.2 fold in assay [6] and 0.9 fold in assay [7]. In addition, the values for the EC50 in [1] and in assay [2] were 1.19 nM and 1.01 nM, respectively. In [4], the Kd was determined as 7.7 nM.

B7: mAb26 (antibody, V domains shown)
VH: EVQLLESGGGLVQPGGSLRLSCAASGFTFSDYAMSWVRQAPGKGLEWVSAISNSGTYTYYADSVKGRFTISRDNSKNTLYLQMNSLRAEDTAVYYCARGLDFIVGYTGNDYWGQGTLVTVSS
VL: not shown
Consider B7, for which the “Fold improvement over Parent” value in assay [5] was determined as 24 fold; in assay [6], 5.6 fold; in assay [7], 0.2 fold. The EC50 in assay [1] was found to be 1.54 nM; in assay [2], 3.74 nM; in [3], 17.9 nM. In addition, the dissociation constant (Kd) in [4] was determined as 10 nM.

B8: mAb7 (antibody, V domains shown)
VH: QVQLVQSGAEVKKPGSSVKVSCKASGGTFSSYAINWVRQAPGQGLEWMGGIIPNFGTATYAQKFQGRVTITADESTSTAYMELSSLRSEDTAVYYCARLKGELKGAGDIWGQGTLVTVSS
VL: not shown
On to B8, for which, in assay [8], the binding result is reported as “no binding”.

B9: mAb13 (antibody, V domains shown)
VH: QVQLVQSGAEVKKPGSSVKVSCKASGGTFSSYAISWVRQAPGQGLEWMGGIIPVFGTATYAQKFQGRVTITADESTSTAYMELSSLRSEDTAVYYCARLKGEFKDAFDIWGQGTLVTVSS
VL: not shown
Take B9: the “Fold Improvement” value came to 1 fold in assay [9] and 0.1 fold in assay [10]. Moreover, the binding result in assay [8] is “no binding”. In assay [11], this molecule yielded an EC50 of 1.43 nM. Moreover, the dissociation constant Kd in [12] was found to be 52.3 nM.

B10: mAb15 (antibody, V domains shown)
VH: QVQLVQSGAEVKKPGSSVKVSCKASGGTFSSYAISWVRQAPGQGLEWMGRINPILGTANYAQKFQGRVTITADESTSTAYMELSSLRSEDTAVYYCARLKGELKDAFSIWGQGTLVTVSS
VL: not shown
As to B10, the binding result in assay [8] was “no binding”.

B11: mAb11 (antibody, V domains shown)
VH: QVQLVQSGAEVKKPGSSVKVSCKASGGTFSSYAINWVRQAPGQGLEWMGGVIPFLGTANYAQKFQGRVTITADESTSTAYMELSSLRSEDTAVYYCARLKGILKDALDIWGQGTLVTVSS
VL: not shown
With B11, the “Fold Improvement” value in assay [9] was 0.1 fold. The binding result in [8] was “no binding”. In addition, the EC50 in assay [11] worked out at 1.37 nM. In addition, the Kd in assay [12] worked out at 156 nM.

B12: mAb23 (antibody, V domains shown)
VH: QVQLVQSGAEVKKPGSSVKVSCKASGGTFSSYAINWVRQAPGQGLEWMGGIIPVFGTATYAQKFQGRVTITADESTSTAYMELSSLRSEDTAVYYCARLKGELKDAFDIWGQGTMVTVSS
VL: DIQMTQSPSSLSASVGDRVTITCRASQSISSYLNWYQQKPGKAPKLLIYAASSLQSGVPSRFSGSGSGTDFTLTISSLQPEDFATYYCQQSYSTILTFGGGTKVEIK
For B12, the “Fold Improvement” value in assay [9] was determined as 0.2 fold. Also, in assay [8], the binding result is “no binding”. This molecule also yielded a half-maximal effective concentration (EC50) in [11] of 0.83 nM. The dissociation constant (Kd) in [12] was determined as 369 nM.

B13: mAb12 (antibody, V domains shown)
VH: QVQLVQSGAEVKKPGSSVKVSCKASGGTFSSYAISWVRQAPGQDLEWMGGIIPIVGIANYAQKFQGRVTITADESTSTAYMELSSLRSEDTAVYYCARLKGELKDAFDIWGQGTLVTVSS
VL: not shown
On to B13, for which the “Fold Improvement” value in assay [9] is 0.1 fold. For the same molecule, the binding result in [8] was “no binding”. The molecule also registered an EC50 in [11] of 1.23 nM. The Kd in assay [12] worked out at 358 nM.

B14: mAb16 (antibody, V domains shown)
VH: QVQLVQSGAEVKKPGSSVKVSCKASGGTFSSYAINWVRQAPGQGLEWMGRIIPIFGTADYAQKFQGRVTITADESTSTAYMELSSLRSEDTAVYYCARLKGELKDAFDIWGQGTLVTVSS
VL: not shown
With B14, the binding result in assay [8] is “no binding”.

B15: mAb14 (antibody, V domains shown)
VH: QVQLVQSGAEVKKPGSSVKVSCKASGGTFSSYAISWVRQAPGQGLEWMGRIIPLFGTAHYAQKFQGRVTITADESTSTAYMELSSLRSEDTAVYYCARLKGELKDAFDIWGQGTLVTVSS
VL: not shown
Consider B15, for which the “Fold Improvement” value in assay [9] is 0.1 fold. Further, the binding result in [8] is “no binding”. This molecule also yielded an EC50 in [11] of 1.54 nM.

B16: mAb21 (antibody, V domains shown)
VH: QVQLVQSGAEVKKPGSSVKVSCKASGGPFRSHAVSWVRQAPGQGLEWMGGIIPVFGTATYAQKFQGRVTITADESTSTAYMELSSLRSEDTAVYYCARLKSELKDAFDIWGQGTLVTVSS
VL: not shown
On to B16, for which the “Fold Improvement” value came to 1 fold in [9] and 0.1 fold in assay [10]. In addition, in assay [8], the binding result was “no binding”. The response in assay [11] was half-maximal at 0.14 nM (EC50). Also, the Kd in assay [12] is 91.5 nM.
